Consider 6 substances from paper PMC8204860.

The target in the assay is TRAPPIII complex, P46944;P38334;Q03337;P36149;Q03784;Q03630;Q99394. Description: in vivo anchor-away assay (colocalization of Trs85-mNeonGreen with mitochondrially anchored Rab, fluorescence microscopy). To be noted: parent: est. 0.55; read off a plot.

Consider “chimeric construct containing the NBD of Rab11/Ypt31 and the HVD of Rab1/Ypt1, mitochondrially anchored K184A; K185A; E186A”, for which the other: Mander's Overlap Coefficient turned out to be 0.58.
Consider “chimeric construct containing the NBD of Rab11/Ypt31 and the HVD of Rab1/Ypt1, mitochondrially anchored L198A; T199A; N200A; T201A”, for which the other: Mander's Overlap Coefficient came to 0.21.
Regarding “chimeric construct containing the NBD of Rab11/Ypt31 and the HVD of Rab1/Ypt1, mitochondrially anchored T181A; T182A; Q183A”, the other: Mander's Overlap Coefficient is 0.54.
Turning to “chimeric construct containing the NBD of Rab11/Ypt31 and the HVD of Rab1/Ypt1, mitochondrially anchored D187A; K188A; N190A”, the other: Mander's Overlap Coefficient was determined as 0.68.
Under “chimeric construct containing the NBD of Rab11/Ypt31 and the HVD of Rab1/Ypt1, mitochondrially anchored V191A; N192A; L193A” stands 0.3; under “chimeric construct containing the NBD of Rab11/Ypt31 and the HVD of Rab1/Ypt1, mitochondrially anchored K194A; Q196A; S197A”, 0.28.
